The text below walks through data of article PMC11584650, “An inhibitory segment within G-patch activators tunes Prp43-ATPase activity during ribosome assembly” (Nature Communications, 2024).

Substrate in this data set: Nc1ncnc2c1ncn2[C@@H]1O[C@H](COP(=O)(O)OP(=O)(O)OP(=O)(O)O)[C@@H](O)[C@H]1O
Briefly: pyruvate kinase/lactate dehydrogenase coupled NADH assay, Michaelis-Menten fit. Type of data set: biochemical, Saccharomyces cerevisiae. The conditions noted are these: no RNA, 20 mM MgCl2, 50 mM Hepes pH 7.5, 200 mM KCl, room temperature, ATP up to 2.5 mM. An excerpt:
pyruvate kinase/lactate dehydrogenase coupled NADH assay, Michaelis-Menten fit on Prp43 | We obtained kinetic parameters for the ATPase activities of Prp43, Prp43:Tma23^M and Ppr43:Pxr1^M complexes

B1: Prp43 (Saccharomyces cerevisiae S288C) (protein)
chain: MGSKRRFSSEHPDPVETSIPEQAAEIAEELSKQHPLPSEEPLVHHDAGEFKGLQRHHTSAEEAQKLEDGKINPFTGREFTPKYVDILKIRRELPVHAQRDEFLKLYQNNQIMVFVGETGSGKTTQIPQFVLFDEMPHLENTQVACTQPRRVAAMSVAQRVAEEMDVKLGEEVGYSIRFENKTSNKTILKYMTDGMLLREAMEDHDLSRYSCIILDEAHERTLATDILMGLLKQVVKRRPDLKIIIMSATLDAEKFQRYFNDAPLLAVPGRTYPVELYYTPEFQRDYLDSAIRTVLQIHATEEAGDILLFLTGEDEIEDAVRKISLEGDQLVREEGCGPLSVYPLYGSLPPHQQQRIFEPAPESHNGRPGRKVVISTNIAETSLTIDGIVYVVDPGFSKQKVYNPRIRVESLLVSPISKASAQQRAGRAGRTRPGKCFRLYTEEAFQKELIEQSYPEILRSNLSSTVLELKKLGIDDLVHFDFMDPPAPETMMRALEELNYLACLDDEGNLTPLGRLASQFPLDPMLAVMLIGSFEFQCSQEILTIVAMLSVPNVFIRPTKDKKRADDAKNIFAHPDGDHITLLNVYHAFKSDEAYEYGIHKWCRDHYLNYRSLSAADNIRSQLERLMNRYNLELNTTDYESPKYFDNIRKALASGFFMQVAKKRSGAKGYITVKDNQDVLIHPSTVLGHDAEWVIYNEFVLTSKNYIRTVTSVRPEWLIEIAPAYYDLSNFQKGDVKLSLERIKEKVDRLNELKQGKNKKKSKHSKK
notes: full-length His6-tagged Prp43, expressed in E. coli BL21(DE3)*, Ni-NTA and size exclusion
Broadly, the Km is the substrate concentration at which the rate is half of its maximum. One may read the kcat as the number of substrate molecules converted per active site and unit of time at saturation. On to B1, for which the Km came to 19.04 ± 7.11 µM and the kcat amounted to 0.0318 ± 0.0005 s⁻¹.
